Data: US20180280412A1

Target: Ub-AMC substrate

Substance purified 26S proteasome (enzyme) has a DUBs activity on Ub-AMC substrate of 3 fold.
